Where “and” joins values, the source holds several entries; their conditions need not be identical. Identical values can stand only once.
Molecular target: human epidermal growth factor receptor 2 (HER2) extracellular domain (human, UniProt P04626 23-629)
Assay: SPR

Binder	Kd	log(KD (M))
Trastuzumab HCDR3 variant ARYGDAFIMSFGV (Fab, V domains shown) VH: EVQLVESGGGLVQPGGSLRLSCAASGFNIKDTYIHWVRQAPGKGLEWVARIYPTNGYTRYADSVKGRFTISADTSKNTAYLQMNSLRAEDTAVYYCARYGDAFIMSFGVWGQGTLVTVSS VL: not shown	67.4 nM	-7.17 log(M)
Trastuzumab HCDR3 variant ARYGGYGNYWFDT (Fab, V domains shown) VH: EVQLVESGGGLVQPGGSLRLSCAASGFNIKDTYIHWVRQAPGKGLEWVARIYPTNGYTRYADSVKGRFTISADTSKNTAYLQMNSLRAEDTAVYYCARYGGYGNYWFDTWGQGTLVTVSS VL: not shown	42.1 nM	-7.38 log(M)
Trastuzumab HCDR3 variant ASVDLGGFYDFRY (Fab, V domains shown) VH: EVQLVESGGGLVQPGGSLRLSCAASGFNIKDTYIHWVRQAPGKGLEWVARIYPTNGYTRYADSVKGRFTISADTSKNTAYLQMNSLRAEDTAVYYCASVDLGGFYDFRYWGQGTLVTVSS VL: not shown	46.1 nM	-7.34 log(M)
Trastuzumab HCDR3 variant ARYMRPAFYPFLY (Fab, V domains shown) VH: EVQLVESGGGLVQPGGSLRLSCAASGFNIKDTYIHWVRQAPGKGLEWVARIYPTNGYTRYADSVKGRFTISADTSKNTAYLQMNSLRAEDTAVYYCARYMRPAFYPFLYWGQGTLVTVSS VL: not shown	50.9 nM	-7.29 log(M)
Trastuzumab HCDR3 variant ASYYAPGSYGFDP (Fab, V domains shown) VH: EVQLVESGGGLVQPGGSLRLSCAASGFNIKDTYIHWVRQAPGKGLEWVARIYPTNGYTRYADSVKGRFTISADTSKNTAYLQMNSLRAEDTAVYYCASYYAPGSYGFDPWGQGTLVTVSS VL: not shown	135 nM	-6.87 log(M)
Trastuzumab HCDR3 variant ARYGDGTYYFFAH (Fab, V domains shown) VH: EVQLVESGGGLVQPGGSLRLSCAASGFNIKDTYIHWVRQAPGKGLEWVARIYPTNGYTRYADSVKGRFTISADTSKNTAYLQMNSLRAEDTAVYYCARYGDGTYYFFAHWGQGTLVTVSS VL: not shown	97.3 nM	-7.01 log(M)
Trastuzumab HCDR3 variant ARYGGYGYYWFDY (Fab, V domains shown) VH: EVQLVESGGGLVQPGGSLRLSCAASGFNIKDTYIHWVRQAPGKGLEWVARIYPTNGYTRYADSVKGRFTISADTSKNTAYLQMNSLRAEDTAVYYCARYGGYGYYWFDYWGQGTLVTVSS VL: not shown	40 nM	-7.4 log(M)
Trastuzumab HCDR3 variant ARYGGLSYYSFDL (Fab, V domains shown) VH: EVQLVESGGGLVQPGGSLRLSCAASGFNIKDTYIHWVRQAPGKGLEWVARIYPTNGYTRYADSVKGRFTISADTSKNTAYLQMNSLRAEDTAVYYCARYGGLSYYSFDLWGQGTLVTVSS VL: not shown	58.1 nM	-7.24 log(M)
Trastuzumab HCDR3 variant ARYPGGGIYDFDP (Fab, V domains shown) VH: EVQLVESGGGLVQPGGSLRLSCAASGFNIKDTYIHWVRQAPGKGLEWVARIYPTNGYTRYADSVKGRFTISADTSKNTAYLQMNSLRAEDTAVYYCARYPGGGIYDFDPWGQGTLVTVSS VL: not shown	39.9 nM	-7.4 log(M)
Trastuzumab HCDR3 variant ARYGTGTYYYFLH (Fab, V domains shown) VH: EVQLVESGGGLVQPGGSLRLSCAASGFNIKDTYIHWVRQAPGKGLEWVARIYPTNGYTRYADSVKGRFTISADTSKNTAYLQMNSLRAEDTAVYYCARYGTGTYYYFLHWGQGTLVTVSS VL: not shown	42.3 nM and 42.2 nM	-7.37 log(M)
Trastuzumab HCDR3 variant ARYVTANTYSYDP (Fab, V domains shown) VH: EVQLVESGGGLVQPGGSLRLSCAASGFNIKDTYIHWVRQAPGKGLEWVARIYPTNGYTRYADSVKGRFTISADTSKNTAYLQMNSLRAEDTAVYYCARYVTANTYSYDPWGQGTLVTVSS VL: not shown	83.6 nM and 83.5 nM	-7.08 log(M)
Trastuzumab HCDR3 variant ARYLTDADFRLHY (Fab, V domains shown) VH: EVQLVESGGGLVQPGGSLRLSCAASGFNIKDTYIHWVRQAPGKGLEWVARIYPTNGYTRYADSVKGRFTISADTSKNTAYLQMNSLRAEDTAVYYCARYLTDADFRLHYWGQGTLVTVSS VL: not shown	75.1 nM	-7.12 log(M)
Trastuzumab HCDR3 variant ARYYYDFGYYFDY (Fab, V domains shown) VH: EVQLVESGGGLVQPGGSLRLSCAASGFNIKDTYIHWVRQAPGKGLEWVARIYPTNGYTRYADSVKGRFTISADTSKNTAYLQMNSLRAEDTAVYYCARYYYDFGYYFDYWGQGTLVTVSS VL: not shown	42.8 nM	-7.37 log(M)
Trastuzumab HCDR3 variant ASYGSGSYFSFPL (Fab, V domains shown) VH: EVQLVESGGGLVQPGGSLRLSCAASGFNIKDTYIHWVRQAPGKGLEWVARIYPTNGYTRYADSVKGRFTISADTSKNTAYLQMNSLRAEDTAVYYCASYGSGSYFSFPLWGQGTLVTVSS VL: not shown	53.9 nM	-7.27 log(M)
Trastuzumab HCDR3 variant ARYGLNHYYVYPY (Fab, V domains shown) VH: EVQLVESGGGLVQPGGSLRLSCAASGFNIKDTYIHWVRQAPGKGLEWVARIYPTNGYTRYADSVKGRFTISADTSKNTAYLQMNSLRAEDTAVYYCARYGLNHYYVYPYWGQGTLVTVSS VL: not shown	135 nM	-6.87 log(M)
Trastuzumab HCDR3 variant ARYGPYYYYAMDY (Fab, V domains shown) VH: EVQLVESGGGLVQPGGSLRLSCAASGFNIKDTYIHWVRQAPGKGLEWVARIYPTNGYTRYADSVKGRFTISADTSKNTAYLQMNSLRAEDTAVYYCARYGPYYYYAMDYWGQGTLVTVSS VL: not shown	41.3 nM and 41.2 nM	-7.38 log(M)

Binder	Kd	log(KD (M))
Trastuzumab HCDR3 variant ARYPSGYYYYFDY (Fab, V domains shown) VH: EVQLVESGGGLVQPGGSLRLSCAASGFNIKDTYIHWVRQAPGKGLEWVARIYPTNGYTRYADSVKGRFTISADTSKNTAYLQMNSLRAEDTAVYYCARYPSGYYYYFDYWGQGTLVTVSS VL: not shown	90.1 nM	-7.05 log(M)
Trastuzumab HCDR3 variant ARYGRNGSYSYDY (Fab, V domains shown) VH: EVQLVESGGGLVQPGGSLRLSCAASGFNIKDTYIHWVRQAPGKGLEWVARIYPTNGYTRYADSVKGRFTISADTSKNTAYLQMNSLRAEDTAVYYCARYGRNGSYSYDYWGQGTLVTVSS VL: not shown	38.2 nM	-7.42 log(M)
Trastuzumab HCDR3 variant ARYNPFDGFYFDV (Fab, V domains shown) VH: EVQLVESGGGLVQPGGSLRLSCAASGFNIKDTYIHWVRQAPGKGLEWVARIYPTNGYTRYADSVKGRFTISADTSKNTAYLQMNSLRAEDTAVYYCARYNPFDGFYFDVWGQGTLVTVSS VL: not shown	156 nM	-6.81 log(M)
Trastuzumab HCDR3 variant ASSGRLDLYDFRL (Fab, V domains shown) VH: EVQLVESGGGLVQPGGSLRLSCAASGFNIKDTYIHWVRQAPGKGLEWVARIYPTNGYTRYADSVKGRFTISADTSKNTAYLQMNSLRAEDTAVYYCASSGRLDLYDFRLWGQGTLVTVSS VL: not shown	171 nM	-6.77 log(M)
Trastuzumab HCDR3 variant ARYYSYGGYYFDY (Fab, V domains shown) VH: EVQLVESGGGLVQPGGSLRLSCAASGFNIKDTYIHWVRQAPGKGLEWVARIYPTNGYTRYADSVKGRFTISADTSKNTAYLQMNSLRAEDTAVYYCARYYSYGGYYFDYWGQGTLVTVSS VL: not shown	106 nM	-6.98 log(M)
Trastuzumab HCDR3 variant ARYGYDYYYYFDV (Fab, V domains shown) VH: EVQLVESGGGLVQPGGSLRLSCAASGFNIKDTYIHWVRQAPGKGLEWVARIYPTNGYTRYADSVKGRFTISADTSKNTAYLQMNSLRAEDTAVYYCARYGYDYYYYFDVWGQGTLVTVSS VL: not shown	50 nM	-7.3 log(M)
Trastuzumab HCDR3 variant ARYYYDYGYYFDV (Fab, V domains shown) VH: EVQLVESGGGLVQPGGSLRLSCAASGFNIKDTYIHWVRQAPGKGLEWVARIYPTNGYTRYADSVKGRFTISADTSKNTAYLQMNSLRAEDTAVYYCARYYYDYGYYFDVWGQGTLVTVSS VL: not shown	30 nM	-7.52 log(M)
Trastuzumab HCDR3 variant ARYPNYGFYMFDY (Fab, V domains shown) VH: EVQLVESGGGLVQPGGSLRLSCAASGFNIKDTYIHWVRQAPGKGLEWVARIYPTNGYTRYADSVKGRFTISADTSKNTAYLQMNSLRAEDTAVYYCARYPNYGFYMFDYWGQGTLVTVSS VL: not shown	33.3 nM	-7.48 log(M)
Trastuzumab HCDR3 variant ARYIFGGPYYFDY (Fab, V domains shown) VH: EVQLVESGGGLVQPGGSLRLSCAASGFNIKDTYIHWVRQAPGKGLEWVARIYPTNGYTRYADSVKGRFTISADTSKNTAYLQMNSLRAEDTAVYYCARYIFGGPYYFDYWGQGTLVTVSS VL: not shown	36 nM	-7.44 log(M)
Trastuzumab HCDR3 variant ARYGDSYYYYFDY (Fab, V domains shown) VH: EVQLVESGGGLVQPGGSLRLSCAASGFNIKDTYIHWVRQAPGKGLEWVARIYPTNGYTRYADSVKGRFTISADTSKNTAYLQMNSLRAEDTAVYYCARYGDSYYYYFDYWGQGTLVTVSS VL: not shown	40.6 nM	-7.39 log(M)
Trastuzumab HCDR3 variant ARYYSDYSYTFSY (Fab, V domains shown) VH: EVQLVESGGGLVQPGGSLRLSCAASGFNIKDTYIHWVRQAPGKGLEWVARIYPTNGYTRYADSVKGRFTISADTSKNTAYLQMNSLRAEDTAVYYCARYYSDYSYTFSYWGQGTLVTVSS VL: not shown	112 nM	-6.95 log(M)
Trastuzumab HCDR3 variant ARYGGGYYYYFDV (Fab, V domains shown) VH: EVQLVESGGGLVQPGGSLRLSCAASGFNIKDTYIHWVRQAPGKGLEWVARIYPTNGYTRYADSVKGRFTISADTSKNTAYLQMNSLRAEDTAVYYCARYGGGYYYYFDVWGQGTLVTVSS VL: not shown	31.4 nM	-7.5 log(M)
Trastuzumab HCDR3 variant ARYGLYGSYYFRY (Fab, V domains shown) VH: EVQLVESGGGLVQPGGSLRLSCAASGFNIKDTYIHWVRQAPGKGLEWVARIYPTNGYTRYADSVKGRFTISADTSKNTAYLQMNSLRAEDTAVYYCARYGLYGSYYFRYWGQGTLVTVSS VL: not shown	71.8 nM	-7.14 log(M)
Trastuzumab HCDR3 variant ARYGGLGGYTLAY (Fab, V domains shown) VH: EVQLVESGGGLVQPGGSLRLSCAASGFNIKDTYIHWVRQAPGKGLEWVARIYPTNGYTRYADSVKGRFTISADTSKNTAYLQMNSLRAEDTAVYYCARYGGLGGYTLAYWGQGTLVTVSS VL: not shown	42.9 nM	-7.37 log(M)
Trastuzumab HCDR3 variant ARYGYGAYYYFDY (Fab, V domains shown) VH: EVQLVESGGGLVQPGGSLRLSCAASGFNIKDTYIHWVRQAPGKGLEWVARIYPTNGYTRYADSVKGRFTISADTSKNTAYLQMNSLRAEDTAVYYCARYGYGAYYYFDYWGQGTLVTVSS VL: not shown	54 nM	-7.27 log(M)

Reference: patent US20250218531A1 (ABSCI, published 2025)
